Assay results taken from patent publication US20170283834A1, “Processes for Producing A Fermentation Product Using A Fermenting Organism” (Novozymes A/S, priority 2014, published 2017).

Assays:
[1] = molecular target: T1, aorsin (Aspergillus oryzae, UniProt Q8NK92); assay: PE001 protease stability, SDS-PAGE after protease treatment; format: biochemical
T1 sequence (Q8NK92 216-652): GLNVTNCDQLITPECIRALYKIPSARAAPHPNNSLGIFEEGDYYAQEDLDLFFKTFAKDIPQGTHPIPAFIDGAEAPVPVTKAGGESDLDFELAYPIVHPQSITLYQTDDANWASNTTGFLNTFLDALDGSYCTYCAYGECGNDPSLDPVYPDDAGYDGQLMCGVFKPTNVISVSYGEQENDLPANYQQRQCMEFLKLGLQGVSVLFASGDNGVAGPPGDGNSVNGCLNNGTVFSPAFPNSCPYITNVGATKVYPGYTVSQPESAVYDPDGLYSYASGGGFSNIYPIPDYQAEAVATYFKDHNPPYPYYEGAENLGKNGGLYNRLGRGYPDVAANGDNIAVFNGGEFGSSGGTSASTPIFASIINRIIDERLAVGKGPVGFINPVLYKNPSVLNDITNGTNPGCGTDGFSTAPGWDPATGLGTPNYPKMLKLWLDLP
Description: (§1) 40 μl enzyme solutions (1 mg/ml) in 50 mM sodium acetate buffer, pH 4.5, were mixed with 1/10 volume of 1 mg/ml protease solutions such as aspergillopepsin I described in Biochem J. 1975 April; 147(1):45-53, or the commercially available product from Sigma and aorsin described in Biochemical journal [0264-6021] Ichishima yr: 2003 vol:371 iss:Pt 2 pg:541 and incubated at 4 or 32° C. overnight. As a control experiment, H2O was added to the sample instead of proteases. The samples were loaded on SDS-PAGE to see if the glucoamylases are cleaved by proteases.

[2] = system: aspergillopepsin I; assay: as above; format: biochemical; details: for intact glucoamylase (ca. 70 kDa): aspergillopepsin I
Description: as §1

[3] = system: host proteases; assay: Cleavage during cultivation, SDS-PAGE of culture supernatants; set-up: species or system Aspergillus niger
Description: Aspergillus transformant of the variant and the wild type Penicillium oxalicum glucoamylase were cultivated in 6-well MT plates containing 4× diluted YP-2% maltose medium supplemented with 10 mM sodium acetate buffer, pH4.5, at 32° C. for 1 week.
The culture supernatants were loaded on SDS-PAGE.

[4] = Glucoamylase activity (AGU) of variant compared to parent; format: biochemical; details: 37° C., pH 4.3, maltose 100 mM
Description: The Novo Glucoamylase Unit (AGU) is defined as the amount of enzyme, which hydrolyzes 1 micromole maltose per minute under the standard conditions 37° C., pH 4.3, substrate: maltose 23.2 mM, buffer: acetate 0.1 M, reaction time 5 minutes.
An autoanalyzer system may be used. Mutarotase is added to the glucose dehydrogenase reagent so that any alpha-D-glucose present is turned into beta-D-glucose. Glucose dehydrogenase reacts specifically with beta-D-glucose in the reaction mentioned above, forming NADH which is determined using a photometer at 340 nm as a measure of the original glucose concentration.
The glucoamylase activity measures as AGU as described above was checked for the purified enzymes of the wild type Penicillium oxalicum and the variant glucoamylase.
The Glucoamylase Unit (AGU) was defined as the amount of enzyme, which hydrolyzes 1 micromole maltose per minute under the standard conditions (37° C., pH 4.3, substrate: maltose 100 mM, buffer: acetate 0.1 M, reaction time 6 minutes).

[5] = Protein thermal unfolding analysis (TSA, Thermal shift assay); format: physicochemical
Description: Protein thermal unfolding of the T65A and Q327F variants, was monitored using Sypro Orange (In-vitrogen, S-6650) and was performed using a real-time PCR instrument (Applied Biosystems; Step-One-Plus).
In a 96-well plate, 25 microliter micropurified sample in 50 mM Acetate pH4,5 at approx. 100 microgram/ml was mixed (5:1) with Sypro Orange (resulting conc.=5×; stock solution from supplier=5000×). The plate was sealed with an optical PCR seal. The PCR instrument was set at a scan-rate of 76° C. pr. hr, starting at 25° C. and finishing at 96° C.
Protein thermal unfolding of the E501V+Y504T variant, was monitored using Sypro Orange (In-vitrogen, S-6650) and was performed using a real-time PCR instrument (Applied Biosystems; Step-One-Plus).
In a 96-well plate, 15 microliter purified sample in 50 mM Acetate pH4,5 at approx. 50 microgram/ml was mixed (1:1) with Sypro Orange (resulting conc.=5×; stock solution from supplier=5000×) with or without 200 ppm Acarbose (Sigma A8980). The plate was sealed with an optical PCR seal. The PCR instrument was set at a scan-rate of 76 degrees C. pr. hr, starting at 25° C. and finishing at 96° C.
Fluorescence was monitored every 20 seconds using in-built LED blue light for excitation and ROX-filter (610 nm, emission).
Tm-values were calculated as the maximum value of the first derivative (dF/dK) (ref.: Gregory et al; J Biomol Screen 2009 14: 700.)

[6] = Thermostability analysis by Differential Scanning Calorimetry (DSC); format: physicochemical
Description: . The thermal denaturation temperature, Td (° C.), was taken as the top of the denaturation peak (major endothermic peak) in thermograms (Cp vs. T) obtained after heating enzyme solutions in selected buffers (50 mM Sodium Acetate, pH 4.0 or 4.8) at a constant programmed heating rate of 200K/hr.
Sample- and reference-solutions (approximately 0.3 ml) were loaded into the calorimeter (reference: buffer without enzyme) from storage conditions at 10° C. and thermally pre-equilibrated for 10 minutes at 20° C. prior to DSC scan from 20° C. to 110° C. Denaturation temperatures were determined with an accuracy of approximately +/−1° C.

[7] = system: protease; details: cited from earlier work

B1: PE001: Penicillium oxalicum glucoamylase SEQ ID NO: 14 with K79V substitution (protein, listed as Penicillium oxalicum)
chain: RPDPKGGNLTPFIHKEGERSLQGILDNLGGRGKKTPGTAAGLFIASPNTENPNYYYTWTRDSALTAKCLIDLFEDSRAVFPIDRKYLETGIRDYKSSQAILQSVSNPSGTLKDGSGLGEPKFEIDLNPFSGAWGRPQRDGPALRATAMITYANYLISHGQKSDVSQVMWPIIANDLAYVGQYWNNTGFDLWEEVDGSSFFTIAVQHRALVEGSQLAKKLGKSCDACDSQPPQILCFLQSFWNGKYITSNINTQASRSGIDLDSVLGSIHTFDPEAACDDATFQPCSARALANHKVYVDSFRSIYKINAGLAEGSAANVGRYPEDVYQGGNPWYLATLGASELLYDALYQWDRLGKLEVSETSLSFFKDFDATVKIGSYSRNSKTYKKLTQSIKSYADGFIQLVQQYTPSNGSLAEQYDRNTAAPLSANDLTWSFASFLTATQRRDAVVPPSWGAKSANKVPTTCSASPVVGTYKAPTATFSSKTKCVPAKDIVPITFYLIENTYYGENVFMSGNITALGNWDAKKGFPLTANLYTQDQNLWFASVEFIPAGTPFEYKYYKVEPNGDITWEKGPNRVFVAPTGCPVQPHSNDVWQF
modifications: mat_peptide (1)..(595) mature Penicillium oxalicum glucoamylase sequence
- intact glucoamylase (ca. 70 kDa) ([1]; incubation 4° C. overnight): 100%
- intact glucoamylase (ca. 70 kDa) ([1]; incubation 32° C. overnight): 100%
- intact glucoamylase (ca. 70 kDa) ([2]; incubation 4° C. overnight): 100%
- intact glucoamylase (ca. 70 kDa) ([2]; incubation 32° C. overnight): 100%
- SDS-PAGE result after protease treatment ([2]; proteases (aspergillopepsin I, aorsin)): only showed one band corresponding to the intact molecule
- cleavage by host proteases during fermentation [3]: yielded only intact molecule
- intact glucoamylase (ca. 70 kDa) ([3]; culture supernatant, 32° C., 1 week): 100%
- Relative specific activity AGU/mg [4]: 102%
- Tm (Deg. Celsius) +/−0.4 ([5]; Table 14a, 50 mM Acetate pH 4,5): 80.3 Deg. Celsius
- Tm (Deg. Celsius) +/−0.4 ([5]; Table 14b, Acarbose: + (200 ppm)): 86.9 Deg. Celsius
- Tm (Deg. Celsius) +/−0.4 ([5]; Table 14b, Acarbose: −): 79.5 Deg. Celsius
- DSC Td (° C.) @ pH 4.0 ([6]; pH 4.0, 50 mM Sodium Acetate): 82.1 °C
- DSC Td (° C.) @ pH 4.8 ([6]; pH 4.8, 50 mM Sodium Acetate): 83.4 °C
- sensitivity to protease degradation relative to the parent [7]: reduced sensitivity to protease degradation relative to the parent
